Test results published in the supplement of paper PMC10065799, “High-throughput profiling of sequence recognition by tyrosine kinases and SH2 domains using bacterial peptide display” (eLife, 2023).

Legend:
AncSZ = test: phosphorylation enrichment, bacterial display (enrichment ratio); higher = better substrate or ligand; peptides without Tyr show the background
EPHB1 = EPHB1 (UniProt P54762); test: as above
EPHB2 = EPHB2 (UniProt P29323); test: as above
FGFR1 = FGFR1 (UniProt P11362); test: as above
FGFR3 = FGFR3 (UniProt P22607); test: as above
Fer (mouse) = test: as above
Fes = Fes (UniProt P07332); test: as above
Fyn = Fyn (UniProt P06241); test: as above
Hck = Hck (UniProt P08631); test: as above
Jak2 = Jak2 (UniProt O60674); test: as above
MERTK = MERTK (UniProt Q12866); test: as above
c-Abl (mouse) = test: as above
c-Src = test: as above
Grb2 SH2 = Grb2 SH2 (UniProt P62993); test: SH2 binding enrichment of the phosphorylated peptide, bacterial display (enrichment ratio); higher = better substrate or ligand; peptides without Tyr show the background
SHP2-C SH2 = test: as above
c-Src SH2 = test: as above
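Throughout, for SH2 binding enrichment of the phosphorylated peptide, bacterial display: peptide library displayed on the E. coli surface as eCPX fusions, selected cells deep-sequenced, score is each peptide's frequency after selection divided by its frequency in the input.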
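Throughout, for phosphorylation enrichment, bacterial display: 11-residue human phosphosite peptides and single-mutation variants displayed on the E. coli surface, counted by deep sequencing, each peptide's frequency after selection divided by its frequency in the unselected input library; frequency after pTyr selection over input frequency; kinase dosed for 20-30% of maximal phosphorylation in three min.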

FGFR3, sequence (P22607 whole entry, looked up): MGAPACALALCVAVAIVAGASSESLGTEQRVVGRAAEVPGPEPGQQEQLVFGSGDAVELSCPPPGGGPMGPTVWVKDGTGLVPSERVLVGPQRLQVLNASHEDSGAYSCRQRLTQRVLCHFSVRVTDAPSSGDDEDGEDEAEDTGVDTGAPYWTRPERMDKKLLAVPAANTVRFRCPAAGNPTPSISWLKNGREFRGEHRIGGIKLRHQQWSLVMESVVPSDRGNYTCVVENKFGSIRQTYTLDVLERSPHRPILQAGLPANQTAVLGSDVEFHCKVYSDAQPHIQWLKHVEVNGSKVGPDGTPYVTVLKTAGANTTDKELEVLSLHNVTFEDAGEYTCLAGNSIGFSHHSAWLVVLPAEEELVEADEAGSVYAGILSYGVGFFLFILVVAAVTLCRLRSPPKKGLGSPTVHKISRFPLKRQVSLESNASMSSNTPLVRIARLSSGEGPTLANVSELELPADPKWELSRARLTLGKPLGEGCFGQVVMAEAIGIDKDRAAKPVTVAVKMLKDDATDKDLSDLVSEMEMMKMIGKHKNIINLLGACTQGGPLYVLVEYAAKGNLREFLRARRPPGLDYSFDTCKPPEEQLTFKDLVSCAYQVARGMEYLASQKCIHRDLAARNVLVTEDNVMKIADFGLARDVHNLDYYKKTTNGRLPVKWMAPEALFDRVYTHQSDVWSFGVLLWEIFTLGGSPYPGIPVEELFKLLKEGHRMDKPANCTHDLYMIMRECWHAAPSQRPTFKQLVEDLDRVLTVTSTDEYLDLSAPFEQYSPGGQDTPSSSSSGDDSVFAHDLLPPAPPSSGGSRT
EPHB1, sequence (P54762 whole entry, looked up): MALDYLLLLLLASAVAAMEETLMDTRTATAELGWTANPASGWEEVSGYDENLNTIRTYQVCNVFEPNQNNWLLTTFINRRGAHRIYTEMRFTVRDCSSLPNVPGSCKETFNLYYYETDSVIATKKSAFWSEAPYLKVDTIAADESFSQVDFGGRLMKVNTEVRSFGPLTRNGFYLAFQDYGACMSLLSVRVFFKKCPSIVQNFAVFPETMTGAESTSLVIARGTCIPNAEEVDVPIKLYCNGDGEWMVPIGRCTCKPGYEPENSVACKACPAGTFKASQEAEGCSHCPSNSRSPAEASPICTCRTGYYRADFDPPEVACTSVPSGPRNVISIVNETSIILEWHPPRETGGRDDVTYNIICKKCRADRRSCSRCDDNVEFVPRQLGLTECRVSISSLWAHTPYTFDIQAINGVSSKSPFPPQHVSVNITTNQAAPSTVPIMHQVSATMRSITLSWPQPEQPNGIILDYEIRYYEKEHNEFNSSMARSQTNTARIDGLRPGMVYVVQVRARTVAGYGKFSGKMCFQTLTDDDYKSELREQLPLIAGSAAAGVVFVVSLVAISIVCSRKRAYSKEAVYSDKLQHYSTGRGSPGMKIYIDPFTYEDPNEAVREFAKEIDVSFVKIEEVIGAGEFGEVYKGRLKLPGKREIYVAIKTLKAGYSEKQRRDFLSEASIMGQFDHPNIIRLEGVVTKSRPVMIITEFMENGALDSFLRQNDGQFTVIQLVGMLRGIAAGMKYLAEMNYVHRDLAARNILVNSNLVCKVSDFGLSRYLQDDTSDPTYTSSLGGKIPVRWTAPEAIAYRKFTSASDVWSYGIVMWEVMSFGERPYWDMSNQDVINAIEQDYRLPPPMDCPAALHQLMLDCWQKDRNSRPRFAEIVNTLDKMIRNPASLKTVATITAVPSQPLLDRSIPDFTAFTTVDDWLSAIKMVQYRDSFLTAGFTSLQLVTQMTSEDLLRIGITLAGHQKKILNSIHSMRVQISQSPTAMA
Hck, sequence (P08631 whole entry, looked up): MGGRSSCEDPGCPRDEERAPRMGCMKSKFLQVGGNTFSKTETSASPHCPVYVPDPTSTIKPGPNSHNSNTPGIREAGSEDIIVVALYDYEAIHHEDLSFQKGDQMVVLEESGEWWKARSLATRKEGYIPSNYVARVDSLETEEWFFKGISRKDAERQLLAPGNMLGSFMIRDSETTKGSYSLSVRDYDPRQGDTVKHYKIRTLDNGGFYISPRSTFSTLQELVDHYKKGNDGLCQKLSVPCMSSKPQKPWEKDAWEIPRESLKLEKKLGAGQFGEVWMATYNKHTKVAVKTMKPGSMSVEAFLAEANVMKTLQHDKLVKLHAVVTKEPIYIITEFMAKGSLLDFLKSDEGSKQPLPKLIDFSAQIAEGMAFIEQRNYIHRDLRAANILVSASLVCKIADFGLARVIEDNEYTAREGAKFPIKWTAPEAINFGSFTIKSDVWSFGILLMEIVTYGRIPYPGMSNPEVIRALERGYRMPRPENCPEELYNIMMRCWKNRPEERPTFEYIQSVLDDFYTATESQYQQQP
EPHB2, sequence (P29323 whole entry, looked up): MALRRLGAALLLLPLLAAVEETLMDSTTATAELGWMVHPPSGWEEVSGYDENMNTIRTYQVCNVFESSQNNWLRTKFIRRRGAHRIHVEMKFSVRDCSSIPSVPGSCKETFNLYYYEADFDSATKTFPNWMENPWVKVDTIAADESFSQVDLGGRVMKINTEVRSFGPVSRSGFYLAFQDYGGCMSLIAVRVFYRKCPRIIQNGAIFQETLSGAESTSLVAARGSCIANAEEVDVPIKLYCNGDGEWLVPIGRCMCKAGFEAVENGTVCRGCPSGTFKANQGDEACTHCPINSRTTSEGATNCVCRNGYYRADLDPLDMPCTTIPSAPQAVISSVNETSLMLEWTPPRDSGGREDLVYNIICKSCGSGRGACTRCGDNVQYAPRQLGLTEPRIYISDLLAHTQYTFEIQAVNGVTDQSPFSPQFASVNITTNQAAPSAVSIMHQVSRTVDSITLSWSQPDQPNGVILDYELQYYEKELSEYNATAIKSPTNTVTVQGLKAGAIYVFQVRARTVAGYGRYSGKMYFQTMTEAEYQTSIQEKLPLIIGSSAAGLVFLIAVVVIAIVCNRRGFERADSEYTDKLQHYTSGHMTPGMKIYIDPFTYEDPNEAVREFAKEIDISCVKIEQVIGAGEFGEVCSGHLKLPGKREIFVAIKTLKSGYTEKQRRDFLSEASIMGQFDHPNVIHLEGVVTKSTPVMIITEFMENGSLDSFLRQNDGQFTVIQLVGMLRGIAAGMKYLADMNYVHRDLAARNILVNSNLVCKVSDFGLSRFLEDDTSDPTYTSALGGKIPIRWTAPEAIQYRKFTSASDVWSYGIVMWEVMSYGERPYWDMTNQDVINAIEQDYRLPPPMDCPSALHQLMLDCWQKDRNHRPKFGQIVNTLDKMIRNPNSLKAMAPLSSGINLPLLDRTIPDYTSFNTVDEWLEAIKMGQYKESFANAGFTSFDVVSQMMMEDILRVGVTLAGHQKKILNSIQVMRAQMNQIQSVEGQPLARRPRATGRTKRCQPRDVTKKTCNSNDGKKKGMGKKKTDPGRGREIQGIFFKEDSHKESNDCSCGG
Grb2 SH2, sequence (P62993 whole entry, looked up): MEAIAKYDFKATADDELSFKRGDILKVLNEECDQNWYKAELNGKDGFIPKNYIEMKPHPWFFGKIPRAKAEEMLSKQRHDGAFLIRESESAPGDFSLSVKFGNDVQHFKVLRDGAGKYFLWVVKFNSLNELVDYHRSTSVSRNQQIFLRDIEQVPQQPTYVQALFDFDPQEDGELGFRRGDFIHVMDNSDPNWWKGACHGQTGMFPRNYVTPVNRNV
MERTK, sequence (Q12866 whole entry, looked up): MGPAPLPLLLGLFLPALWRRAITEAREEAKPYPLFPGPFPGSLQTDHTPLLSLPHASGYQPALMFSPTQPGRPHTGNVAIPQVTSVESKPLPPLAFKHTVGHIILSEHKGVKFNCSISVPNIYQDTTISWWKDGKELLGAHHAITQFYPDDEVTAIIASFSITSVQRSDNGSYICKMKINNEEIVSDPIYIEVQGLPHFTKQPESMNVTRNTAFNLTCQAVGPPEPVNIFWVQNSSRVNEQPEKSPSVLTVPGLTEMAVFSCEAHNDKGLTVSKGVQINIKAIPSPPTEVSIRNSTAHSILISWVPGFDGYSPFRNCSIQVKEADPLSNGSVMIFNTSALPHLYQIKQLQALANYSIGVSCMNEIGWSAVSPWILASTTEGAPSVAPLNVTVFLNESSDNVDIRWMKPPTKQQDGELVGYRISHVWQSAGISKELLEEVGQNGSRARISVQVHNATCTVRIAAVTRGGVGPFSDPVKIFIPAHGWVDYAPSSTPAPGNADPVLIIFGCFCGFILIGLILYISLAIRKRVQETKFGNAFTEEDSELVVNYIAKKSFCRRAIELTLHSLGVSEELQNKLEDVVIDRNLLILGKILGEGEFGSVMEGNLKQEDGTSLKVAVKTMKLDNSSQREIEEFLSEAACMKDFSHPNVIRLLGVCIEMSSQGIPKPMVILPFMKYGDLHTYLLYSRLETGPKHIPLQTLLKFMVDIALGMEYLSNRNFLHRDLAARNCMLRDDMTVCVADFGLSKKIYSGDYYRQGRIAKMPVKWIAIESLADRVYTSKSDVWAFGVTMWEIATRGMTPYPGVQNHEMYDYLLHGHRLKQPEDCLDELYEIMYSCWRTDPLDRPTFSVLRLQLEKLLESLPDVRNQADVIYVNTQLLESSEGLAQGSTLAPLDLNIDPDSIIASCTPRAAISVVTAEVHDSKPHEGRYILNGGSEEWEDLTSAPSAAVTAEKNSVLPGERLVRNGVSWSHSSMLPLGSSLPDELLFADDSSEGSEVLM

Sequence | phosphorylation enrichment (AncSZ) | phosphorylation enrichment (EPHB1) | phosphorylation enrichment (EPHB2) | phosphorylation enrichment (FGFR1) | phosphorylation enrichment (FGFR3) | phosphorylation enrichment (Fer (mouse)) | phosphorylation enrichment (Fes) | phosphorylation enrichment (Fyn) | phosphorylation enrichment (Hck) | phosphorylation enrichment (Jak2) | phosphorylation enrichment (MERTK) | phosphorylation enrichment (c-Abl (mouse)) | phosphorylation enrichment (c-Src) | SH2 binding enrichment (Grb2 SH2) | SH2 binding enrichment (SHP2-C SH2) | SH2 binding enrichment (c-Src SH2)
QNTGFYFDLFG [PTPN11_Y62_D61Y_YF] | 1.89 | 1.6 | 1.25 | 3.04 | 2.42 | 1.12 | 2.16 | 0.668 | 0.742 | 2.66 | 2.75 | 1.36 | 0.681 | 1.19 | 0.657 | 0.663
TGEKLYQHKEF [ZNF283_Y627_R629H] | 0.62 | 0.45 | 0.402 | 0.418 | 0.528 | 0.436 | 0.679 | 0.39 | 0.495 | 0.599 | 0.397 | 0.665 | 0.417 | 0.818 | 0.695 | 0.419
LKGIRYLTSGL [PIGA_Y82_R77L] | 1.03 | 1.12 | 0.913 | 0.691 | 0.452 | 1.01 | 1.09 | 1.05 | 0.937 | 0.959 | 0.644 | 1.28 | 0.762 | 1.32 | 1.03 | 0.564
LTGIAYGLPHW [SLC22A14_Y291_S292G] | 1.16 | 0.56 | 0.558 | 0.523 | 0.618 | 0.424 | 1.25 | 0.578 | 0.631 | 0.924 | 0.508 | 0.705 | 0.574 | 0.89 | 1.23 | 0.768
GEPLSYTRFSL [TFRC_Y20] | 0.833 | 0.438 | 0.455 | 0.452 | 0.545 | 0.554 | 0.935 | 0.443 | 0.52 | 2.21 | 0.567 | 1 | 0.83 | 0.901 | 0.519 | 0.558
IYRAAYFGVYD [SLC25A4_Y191] | 1.15 | 1.2 | 1.33 | 0.554 | 0.771 | 0.937 | 1.21 | 5.53 | 5.56 | 0.982 | 1.26 | 0.955 | 4.49 | 0.92 | 1.19 | 2.12
YSNVLYRPRGA [TMIGD2_Y197] | 0.923 | 1.34 | 0.6 | 0.784 | 0.614 | 4.97 | 0.753 | 0.615 | 0.651 | 0.596 | 2.23 | 0.692 | 0.558 | 0.907 | 0.683 | 1.05
LYDPDFMKVIL [CYP4A22_Y104_Y104F] | 1.18 | 0.772 | 1.01 | 0.562 | 0.688 | 1.09 | 1.78 | 0.888 | 0.634 | 1.39 | 2.57 | 1.8 | 0.954 | 0.785 | 0.634 | 0.467
SVTCTYSPALT [TP53_Y126_N131T] | 1.75 | 0.872 | 0.615 | 0.524 | 0.908 | 0.706 | 1.76 | 0.446 | 0.694 | 1.6 | 0.432 | 1.2 | 0.741 | 0.666 | 0.474 | 0.436
YDGKDYIALKE [HLA-A_Y147_N151K] | 1.12 | 0.669 | 0.648 | 0.702 | 0.739 | 0.49 | 0.913 | 0.493 | 0.49 | 1.03 | 0.439 | 0.72 | 0.377 | 0.891 | 0.648 | 0.495
SIKDKYVTVLY [KCNH2_Y611_A614V] | 0.836 | 0.519 | 0.506 | 0.68 | 0.733 | 0.512 | 0.903 | 0.598 | 0.455 | 0.696 | 0.437 | 0.594 | 0.403 | 0.99 | 2.27 | 1.06
DAAEDYAEGVR [DHODH_Y194] | 1.21 | 0.549 | 0.671 | 0.561 | 0.746 | 0.629 | 1.31 | 0.542 | 0.586 | 0.951 | 0.45 | 0.695 | 0.45 | 0.937 | 0.63 | 0.701
GLGGGYGGASG [KRT8_Y54] | 0.429 | 0.376 | 0.359 | 0.398 | 0.367 | 0.348 | 0.534 | 0.344 | 0.316 | 0.379 | 0.285 | 0.448 | 0.317 | 0.692 | 0.62 | 0.369
PPSGEYFGQCG [TRIP6_Y275] | 1.58 | 1.39 | 0.953 | 1.23 | 1.06 | 0.824 | 1.37 | 0.552 | 0.764 | 1.52 | 0.573 | 1.58 | 0.771 | 1.19 | 0.829 | 0.791
QNVADYMRYLM [RPL5_Y207] | 1.49 | 1.98 | 1.16 | 1.07 | 0.893 | 0.736 | 1.96 | 0.723 | 0.736 | 0.994 | 0.523 | 0.682 | 0.684 | 1.12 | 1.02 | 0.628
TFHNTYHSQMR [IL1RAPL1_Y615] | 0.631 | 0.33 | 0.411 | 0.458 | 0.489 | 0.466 | 0.567 | 0.471 | 0.434 | 0.849 | 0.402 | 0.612 | 0.5 | 0.872 | 0.597 | 0.682
EHFSYYGMKAV [SLC15A2_Y61_R57H] | 1.01 | 0.887 | 0.818 | 8.11 | 6.68 | 0.607 | 0.765 | 1.71 | 3.42 | 9.46 | 2.35 | 0.634 | 3.38 | 0.923 | 0.816 | 0.951

Sequence | phosphorylation enrichment (AncSZ) | phosphorylation enrichment (EPHB1) | phosphorylation enrichment (EPHB2) | phosphorylation enrichment (FGFR1) | phosphorylation enrichment (FGFR3) | phosphorylation enrichment (Fer (mouse)) | phosphorylation enrichment (Fes) | phosphorylation enrichment (Fyn) | phosphorylation enrichment (Hck) | phosphorylation enrichment (Jak2) | phosphorylation enrichment (MERTK) | phosphorylation enrichment (c-Abl (mouse)) | phosphorylation enrichment (c-Src) | SH2 binding enrichment (Grb2 SH2) | SH2 binding enrichment (SHP2-C SH2) | SH2 binding enrichment (c-Src SH2)
TNFCLYLRSLE [MTM1_Y71_R69C_YF] | 1.62 | 0.895 | 0.759 | 0.512 | 0.995 | 0.847 | 1.69 | 0.594 | 0.567 | 1.7 | 0.492 | 1.27 | 0.612 | 0.773 | 0.644 | 0.525
YSMGCYEISLG [HMGCL_Y198] | 2.12 | 1.56 | 1.18 | 0.69 | 0.817 | 2.77 | 1.47 | 2.15 | 1.22 | 1.38 | 2.66 | 1.08 | 2.35 | 0.551 | 0.658 | 0.582
DPLLTYQFPPK [LMNA_Y481_R482Q] | 1.25 | 0.597 | 1.27 | 1.69 | 1.17 | 0.498 | 0.773 | 1.24 | 0.986 | 0.566 | 0.796 | 0.549 | 1.54 | 1.04 | 0.657 | 0.546
RLLRGYDQSAY [HLA-C_Y137] | 0.57 | 0.569 | 0.465 | 0.394 | 0.593 | 0.52 | 0.826 | 0.465 | 0.527 | 0.576 | 0.36 | 0.468 | 0.416 | 0.858 | 0.83 | 0.645
DYLEKYYKFGC [NNMT_Y24_S29C] | 1.44 | 0.824 | 0.802 | 0.855 | 1.14 | 0.563 | 1.28 | 0.588 | 0.539 | 1.25 | 0.541 | 1.04 | 0.78 | 0.611 | 0.53 | 0.581
RPSELYFSKIG [SMG1_Y2253_YF] | 0.605 | 0.49 | 0.457 | 0.641 | 0.654 | 0.421 | 0.671 | 0.546 | 1.74 | 0.51 | 0.791 | 0.687 | 0.623 | 1.04 | 0.919 | 0.557
EITSHYRHLLR [ZBTB46_Y14] | 0.733 | 0.417 | 0.443 | 0.444 | 0.517 | 0.571 | 0.819 | 0.319 | 0.389 | 0.601 | 0.392 | 0.733 | 0.475 | 0.77 | 0.661 | 0.491
FSSLGYPLPEG [ZSWIM4_Y87_P89L_YF] | 0.747 | 0.372 | 0.446 | 0.413 | 0.472 | 0.394 | 0.722 | 0.446 | 0.525 | 0.635 | 0.519 | 0.501 | 0.42 | 1.02 | 1.07 | 0.589
QMEKICTQQIQ [CCNB1IP1_Y125_Y125C] | 1.36 | 0.707 | 0.647 | 1 | 0.948 | 0.537 | 1.64 | 0.486 | 0.409 | 1.24 | 0.461 | 0.986 | 0.573 | 0.834 | 0.558 | 0.486
RAFSWYQHQRA [NDST1_Y714_YF] | 1.54 | 0.74 | 0.855 | 0.763 | 1 | 0.794 | 1.72 | 0.769 | 0.611 | 1.25 | 0.424 | 1.09 | 0.489 | 1.23 | 1.23 | 0.934
DRLASYLDKVP [KRT14_Y129_R134P] | 0.802 | 0.537 | 0.472 | 0.456 | 0.689 | 0.499 | 0.912 | 0.481 | 0.5 | 0.883 | 0.495 | 0.621 | 0.493 | 1.04 | 0.797 | 0.521
GADAIYDHINE [UQCR10_Y44] | 1.03 | 0.91 | 1.03 | 0.5 | 0.563 | 2.82 | 0.953 | 5.57 | 6.65 | 0.777 | 3.14 | 0.689 | 4.96 | 0.704 | 0.561 | 0.678
ENAGYYFRISA | 1.51 | 0.797 | 0.781 | 0.527 | 0.852 | 0.523 | 1.48 | 0.488 | 0.534 | 1.36 | 0.369 | 0.764 | 0.356 | 0.661 | 0.776 | 0.6
LLKKIYLMLDN [STAT1_Y203_M202I] | 1.85 | 1.15 | 0.817 | 1.08 | 1.31 | 0.67 | 2.38 | 0.562 | 0.85 | 2.05 | 0.822 | 1.85 | 0.977 | 0.899 | 1.1 | 0.896
FLTQHYDAIPQ [ANG_Y38_K41I] | 0.885 | 0.715 | 0.51 | 0.639 | 0.866 | 9.86 | 0.855 | 0.586 | 2.88 | 0.608 | 2.46 | 0.611 | 0.678 | 0.809 | 0.927 | 13.9
TCRPPYYHRNC [HGD_Y333_F329C] | 0.243 |  |  | 0.398 | 0.493 | 0.233 | 0.713 | 0.093 | 0.218 | 0.162 | 0.235 | 0.197 | 0.251 | 1.76 | 3.31 | 1.01
